Ends that are not written are not given here.
Columns and labels:
Format in all cases: physicochemical
[1] = Transmission electron microscopy of aged peptides (Example 10); conditions: for fibrilar supramolecular ultrastructures by electron microscopy: peptides derived from amyloid proteins, mild conditions
Procedure: Transmission Electron Microscopy—A 10 μL sample of 8 mg/ml peptide solution in 10 mM Tris buffer, pH 7.2 aged for at least one day was placed on 400-mesh copper grids (SPI supplies, West Chester Pa.) covered by carbon-stabilized Formvar film. Following 1 minute, excess fluid was removed, and the grid was then negatively stained with 2% uranyl acetate in water for another two minutes. Samples were viewed in a JEOL 1200EX electron microscope operating at 80 kV.

[2] = Congo Red staining and birefringence (Example 9)
Procedure: Congo Red Staining and Birefringence—A 10 μL suspension of 8 mg/ml peptide solution in 10 mM Tris buffer, pH 7.2 aged for at least one day was allowed to dry overnight on a glass microscope slide. Staining was performed by the addition of a 10 μL suspension of saturated Congo Red (CR) and NaCl in 80% ethanol (v/v) solution as previously described [Puchtler (1966) Supra]. The solution was filtered via 0.45 μm filter. The slide was then dried for few hours. Birefringence was determined with a SZX-12 Stereoscope (Olympus, Hamburg, Germany) equipped with cross polarizers.

[3] = Fourier transform infrared spectroscopy of aged peptides (Example 11); conditions: for secondary structure by FT-IR: hIAPP peptide fragments, aged solutions from turbidity assay; for secondary structure by FT-IR (amide I): Calcitonin-derived peptides
Procedure: Fourier Transform Infrared Spectroscopy—Infrared spectra were recorded using a Nicolet Nexus 470 FT-IR spectrometer with a DTGS detector. Samples of aged peptide solutions, taken from turbidity assay, were suspended on a CaF2 widows (Sigma)-plate and dried by vacuum. The peptide deposits were resuspended with […] and subsequently dried to form thin films. The resuspension procedure was repeated twice to ensure maximal hydrogen to deuterium exchange. The measurements were taken using a 4 cm^−1 resolution and 2000 scans averaging. The transmittance minima values were determined by the OMNIC analysis program (Nicolet).

[4] = Kinetic aggregation assay, turbidity at 405 nm (Example 8)
Procedure: Kinetic Aggregation Assay—freshly prepared peptide stock solutions were generated by dissolving the lyophilized form of the peptides in dimethyl sulfoxide (DMSO) at a concentration of 100 mg/ml. To avoid any pre-aggregation, fresh stock solutions were prepared for each experiment. […] Turbidity data were collected at 405 nm. Buffer solution containing the same amount of DMSO as the tested samples was used as blank, which was subtracted from the results. Turbidity was measured continuously at room temperature using THERMOmax ELISA plate reader (Molecular Devices, Sunnyvale Calif.).

[5] = Negative staining electron microscopy of fibril formation (Example 5); conditions: 2 mM peptide incubated overnight
Procedure: Method—Peptide solutions (2 mM peptide in 10 mM Tris buffer pH 7.2), were incubated overnight at room temperature. Fibrils formation was assessed using 10 μl sample placed on 200-mesh copper grids, covered with carbon-stabilized formvar film (SPI Supplies, West Chester Pa.). Following 20-30 seconds of incubation, excess fluid was removed and the grids were negatively stained with 2% uranyl acetate in water. Samples were viewed in a JEOL 1200EX electron microscope operating at 80 kV.

[6] = Aggregate mean particle size by dynamic light scattering; conditions: 100 μM peptide, 1% DMSO, 10 mM Tris pH 7.2
Procedure: Therefore, the average size of the aggregates, formed by the various peptides, was determined using dynamic light scattering (DLS) experiments.
Method—Freshly prepared peptide stock solutions at a concentration of 10 mM were diluted in 10 mM Tris buffer pH 7.2 and further filtrated through a 0.2 μm filter to a final concentration of 100 μM peptide and 1% DMSO. Particle size measurement was conducted with a laser-powered ALV-NIBS/HPPS non-invasive backscattering instrument. Autocorrelation data was fitted using the ALV-NIBS/HPPS software to derive average apparent hydrodynamic diameters.

[7] = Congo red binding assay with polarization microscopy (Example 4)
Procedure: Congo red (CR) staining combined with polarization microscopy was utilized to test amyloidogenicity of the peptides of the present invention. […] Invest. 31:232-8; Lansbury (1992) Biochemistry 31:6865-70]. […] Staining was effected by the addition of 1 mM CR in 10 mM Tris buffer pH 7.2 followed by a 1 minute incubation. To remove excess CR, slides were rinsed with double-distilled water and dried. Saturated CR solutions solubilized in 80% ethanol (v/v) were used for poorly aggregating peptides. In such cases, staining was effected without rinsing. Birefringence was determined using a WILD Makroskop m420 (×70) equipped with a polarizing stage.

[8] = hIAPP peptide fragments, 8 mg/ml aged at least one day
[9] = hIAPP peptide fragments, 8 mg/ml, 8% DMSO, monitored two hours
[10] = Medin-derived peptides, aged 4 days
[11] = Calcitonin-derived peptides, 0.02M NaCl, 0.01M Tris pH 7.2, aged 2 days

Substance: SFNNG (also: EG modification)
- fibrilar supramolecular ultrastructures by electron microscopy [1]: filamentous structures were observed

Substance: NFLVHSS
- Congo Red birefringence [2, 8]: typical birefringence
- structures by electron microscopy [1, 8]: large broad ribbon-like fibrils
- secondary structure by FT-IR [3]: classical for an anti-parallel β-sheet structure
- turbidity at 405 nm [4, 9]: high turbidity

Substance: NFGSVQFV [published amyloidogenic octapeptide of Medin, reference compound]
- Congo Red birefringence ([2]; Medin-derived peptides): significant birefringence
- structures by electron microscopy [1, 10]: Fibrillar structures were clearly seen
- turbidity at 405 nm ([4]; Medin-derived peptides): too fast to be measured

Substance: FLVHSS
- Congo Red birefringence [2, 8]: typical birefringence
- structures by electron microscopy [1, 8]: large broad ribbon-like fibrils
- secondary structure by FT-IR [3]: major minimum at 1626
- turbidity at 405 nm [4, 9]: high turbidity

Substance: NH2-GSVQ -COOH (H-GSVQ-OH)
- Congo Red birefringence ([2]; Medin-derived peptides): unexpected high level of birefringence
- structures by electron microscopy [1, 10]: no fibrillar structures could be found

Substance: NH2-FGSVQ -COOH (H-FGSVQ-OH)
- Congo Red birefringence ([2]; Medin-derived peptides): no birefringence
- structures by electron microscopy [1, 10]: somewhat fibrillar and ordered structure could be seen
- turbidity at 405 nm ([4]; Medin-derived peptides): gradual increase in turbidity

Substance: NFGAILSS
- structures by electron microscopy ([1]; hIAPP 22-29 and analogues, five days of incubation): well-ordered fibrils
- turbidity at 405 nm ([4]; hIAPP 22-29 and hydrophobic analogues, up to 24 hours): significant increase in turbidity

Substance: NH2-NFGSV -COOH (H-NFGSV-OH)
- Congo Red birefringence ([2]; Medin-derived peptides): very low degree of birefringence
- structures by electron microscopy [1, 10]: network of fibrous structures
- turbidity at 405 nm ([4]; Medin-derived peptides): highest degree of aggregation within minutes of incubation

Substance: NFLVH
- Congo Red birefringence [2, 8]: powerful smear of birefringence at the edges of the sample
- structures by electron microscopy [1, 8]: thin and short
- secondary structure by FT-IR [3]: indicative of β-sheet
- turbidity at 405 nm [4, 9]: almost no turbidity at all

Substance: NH2- FNKF-COOH (H-FNKF-OH)
- Congo Red birefringence ([2]; Calcitonin-derived peptides): lower but significant
- structures by electron microscopy [1, 11]: only amorphous aggregates could be found
- secondary structure by FT-IR (amide I) [3]: typical of a non-ordered structure

Substance: NH2-DFNK -COOH (H-DFNK-OH)
- Congo Red birefringence ([2]; Calcitonin-derived peptides): lower level of birefringence
- structures by electron microscopy [1, 11]: also formed fibrillar structures
- secondary structure by FT-IR (amide I) [3]: less typical of a β-sheet structure

Substance: RALDFA
- fibrilar supramolecular ultrastructures by electron microscopy [1]: filamentous structures were observed

Substance: GLVFVS
- fibrilar supramolecular ultrastructures by electron microscopy [1]: filamentous structures were observed

Substance: LQNFTL
- fibrilar supramolecular ultrastructures by electron microscopy [1]: filamentous structures were observed

Substance: SGIFTN (also: EG modification)
- fibrilar supramolecular ultrastructures by electron microscopy [1]: filamentous structures were observed

Substance: NH2-FGSV -COOH (H-FGSV-OH)
- Congo Red birefringence ([2]; Medin-derived peptides): no birefringence
- structures by electron microscopy [1, 10]: no fibrillar structures could be found
- turbidity at 405 nm ([4]; Medin-derived peptides): gradual increase in turbidity

Substance: SFFSFL (also: EG modification)
- fibrilar supramolecular ultrastructures by electron microscopy [1]: filamentous structures were observed

Substance: ERGFF
- fibrilar supramolecular ultrastructures by electron microscopy [1]: filamentous structures were observed

Substance: wild type peptide: wild-type eight amino-acid hIAPP peptide fragment, NFGAIL motif followed by two serines, SEQ ID NO: 1 (NFGAILSS)
- fibril structures by electron microscopy [5]: tangled net-like structures
- apparent hydrodynamic diameter of the structures formed [6]: very similar hydrodynamic diameters
- Congo red binding and birefringence ([7]; peptide solution incubated for 14 days): significant CR birefringence
- Congo red binding and birefringence ([7]; peptide solutions incubated for four days): bound CR and exhibited the characteristic green/gold birefringence

Substance: FLVH
- Congo Red birefringence [2, 8]: no birefringence
- structures by electron microscopy [1, 8]: amorphous aggregates
- amyloid fibril formation (EM, CR staining, FT-IR) ([1]; incubated for two months): no evidence for amyloid fibril formation was detected
- secondary structure by FT-IR [3]: typical to random coil structure
- turbidity at 405 nm [4, 9]: almost no turbidity at all

Substance: NH2-NFGSVQ -COOH (H-NFGSVQ-OH)
- Congo Red birefringence ([2]; Medin-derived peptides): characteristic bright and strong green-gold birefringence
- structures by electron microscopy [1, 10]: Fibrillar structures were clearly seen
- turbidity at 405 nm ([4]; Medin-derived peptides): gradual increase in turbidity

Substance: RDFLDR
- fibrilar supramolecular ultrastructures by electron microscopy [1]: filamentous structures were observed

Substance: H-NAGSVQ-OH
- Congo Red birefringence ([2]; Medin-derived peptides): some degree of birefringence could still be detected
- structures by electron microscopy [1, 10]: no clear fibrillar structures could be detected
- turbidity at 405 nm ([4]; Medin-derived peptides): significantly lower turbidity

Substance: NH2-DFNKF-COOH (H-DFNKF-OH)
- Congo Red birefringence ([2]; Calcitonin-derived peptides): clear and strong
- structures by electron microscopy [1, 11]: clearly seen with high frequency
- secondary structure by FT-IR (amide I) [3]: consistent with anti-parallel β-sheet structure

Substance: SNFLN (also: EG modification)
- fibrilar supramolecular ultrastructures by electron microscopy [1]: filamentous structures were observed

Substance: NH2-DFN -COOH (H-Asp-Phe-Asn-OH)
- Congo Red birefringence ([2]; Calcitonin-derived peptides): lower but significant
- structures by electron microscopy [1, 11]: more ordered structures
- secondary structure by FT-IR (amide I) [3]: consistent with a mixture of β-sheet and random structures

Substance: LFNQTG
- fibrilar supramolecular ultrastructures by electron microscopy [1]: filamentous structures were observed

Substance: TLIFGG (also: EG modification)
- fibrilar supramolecular ultrastructures by electron microscopy [1]: filamentous structures were observed

Substance: NFLVHSSNN
- Congo Red birefringence [2, 8]: weaker characteristic birefringence
- structures by electron microscopy [1, 8]: long thin coiling filaments
- secondary structure by FT-IR [3]: large β-sheet content
- turbidity at 405 nm [4, 9]: very low turbidity

Substance: GTFQIN
- fibrilar supramolecular ultrastructures by electron microscopy [1]: filamentous structures were observed

Substance: FLVHS
- Congo Red birefringence [2, 8]: typical birefringence
- structures by electron microscopy [1, 8]: large broad ribbon-like fibrils
- turbidity at 405 nm [4, 9]: high turbidity

Substance: FENKF
- fibrilar supramolecular ultrastructures by electron microscopy [1]: filamentous structures were observed

Reference: patent US8012929B2, “Peptides directed for diagnosis and treatment of amyloid-associated diseases” (Tel Aviv University Future Technology Development L.P., priority 2002, dated 2011)
